Measured values from patent US6475791B1, “Uses for DNA structure-specific recognition protein” (Massachusetts Institute of Technology, priority 1988, dated 2002).

Experiments:
HMG1 = assay: inhibition; settings: cisplatin 1,2-d(GpG) intrastrand crosslink; inhibition of excision repair by HeLa CFE at 1 uM HMG1 (20% at 0.5 uM); 8 mM MgCl2, 2 mM ATP, 30 C
[1] = system: h-mtTFA (mitochondrial transcription factor A) (Homo sapiens); assay: inhibition
[2] = system: cellular SSRP in human (HeLa) and hamster (V79) cell extracts; settings: cited from earlier work
[3] = system: cisplatin 1,3-d(GTG) intrastrand adduct (1,3-GTG), excision by human excinuclease; assay: Exinuclease excision repair of the 1,3-intrastrand cisplatin lesion by HeLa cell-free extract, with or without HMG-box protein; assay type: biochemical; settings: for percent inhibition of repair, 1,3-GTG adduct: 30 min, 30° C, average of two experiments
Method: (§1) Exinuclease substrates with defined cisplatin lesions Nucleic acid fragments (oligomers) bearing a 1,2-d(G^G) or a 1,3-d(GTG) cisplatin crosslink at a defined site were prepared essentially according to the method of Shi et al. (1987), 15 Nucleic Acids Res. 6843, by ligation of a mixture of a cisplatin-lesioned dodecamer with seven other oligonucleotides to produce 156 bp fragments. Prior to ligation, lesioned dodecamers were labeled with [γ-^32P]ATP such that the detectable radiolabel would be located at the 4th phosphodiester bond 5′ to the 1,3-intrastrand d(GTG) lesion, or the 5th phosphodiester bond 5′ to the 1,2-intrastrand d(G^G) lesion. Thus, the radiolabel would be included in the 27-29 nucleotide fragment spanning the cisplatin lesion that would be released by exinuclease. Full length (156 bp) exinuclease substrate oligomers were isolated on a 5% polyacrylamide/8 M urea denaturing gel and reannealed.
(§2) Exinuclease reaction. The excision reaction buffer contained 40 mM Hepes, pH 7.9, 80 mM KCl, 8 mM MgCl2, 2 mM ATP, 20 μM of each dNTP, 1 mM dithiothreitol, 0.3 mM EDTA, 6.8% (v/v) glycerol, and 200 μg/ml bovine serum albumin. The reaction mixture (50 μl) contained 100 μg of CFE (in cases of complementation, 50 μg of each of the XP CFE) and 30 pM DNA substrate (specific activity 7000 Ci/mmol), plus 250 ng pBR322 as carrier DNA. The excision reaction was carried out varying lengths of time at 30° C. Following proteinase K digestion, DNA exinuclease reaction products were extracted by phenol/chloroform and precipitated with ethanol. Equal amounts of DNA were loaded onto each lane.
(§3) The radiolabeled substrates bearing specific 1,2- and 1,3-intrastrand cisplatin lesions and the HeLa cell-free extract described above in Example 1 were used.
(§4) Gel Mobility Shift Assay. The 25 μl reaction mixtures contained 30 pM substrate and 0, 1, 2, 4 or 8 μM HMG1. Mixtures were incubated at 30° C. for 10 min. Samples (1.5 μl) of the mixtures were withdrawn and adjusted to 15% (v/v) glycerol, and electrophoretically resolved on a 5% native polyacrylamide gel. Results were visualized by autoradiography.
(§5) Exinuclease reaction in the presence of HMG1. Following withdrawal of the above samples for gel mobility shift analysis, 50 μg of HeLa CFE was added to each of the reaction mixtures and incubation was continued for 30 min at 30° C. as described in Example 1. Reactions were stopped and DNA reaction products were retrieved and analyzed as described in Example 2.
(§6) An exinuclease inhibition study was carried out generally as described in Example 3, using 0, 0.5 or 1.0 μM concentrations of HMG1 or h-mtTFA in parallel incubations.

[4] = system: yeast ixr-1 null mutant strain; settings: Brown et al. (1993); cited from earlier work
[5] = system: cisplatin 1,2-d(G^G) intrastrand adduct (1,2-GG), excision by human excinuclease; assay: Exinuclease excision repair of the 1,2-intrastrand cisplatin lesion by HeLa cell-free extract, with or without HMG-box protein; assay type: biochemical; settings: for percent inhibition of repair, 1,2-GG adduct: 30 min, 30° C, average of two experiments
Method: as §1, §2, §3, §4, §5, §6

[6] = 90 min, HeLa CFE, no inhibitor, over 20 independent assays

156 bp duplex with site-specific cisplatin 1,2-d(GpG) intrastrand crosslink
activity (HMG1): 40 % inhibition
activity ([1]; cisplatin 1,2-d(GpG) intrastrand crosslink, inhibition of excision repair at 0.5 uM h-mtTFA (100% at 1 uM)): 95 % inhibition

156 bp duplex with site-specific cisplatin 1,3-d(GTG) intrastrand crosslink
activity ([1]; cisplatin 1,3-d(GpTpG) intrastrand crosslink, inhibition of excision repair at 1 uM h-mtTFA (40% at 0.5 uM)): 75 % inhibition

[Cl-].[NH-]CC[N-]CC[NH-].[Pt+4] [chloro(diethylenetriamine)platinum(II)]
cellular SSRP binding to double stranded probe DNA bearing lesions produced by the compound [2]: did not bind

NC1CCCCC1N.[Cl][Pt][Cl] (stereo not drawn) [cis-dichloro(1,2-diaminocyclohexane)platinum(II)]
cellular SSRP binding to double stranded probe DNA bearing lesions produced by the compound [2]: bound

NCCN.[Cl][Pt][Cl] [cis-dichloro(ethylenediamine)platinum(II)]
cellular SSRP binding to double stranded probe DNA bearing lesions produced by the compound [2]: bound

N.N.[Cl][Pt][Cl] [cisplatin, cis-diamminedichloroplatinum(II), reference compound]
range of excision of the 1,3-d(GTG) crosslink [3, 6]: 2.3-8%
sensitivity of ixr-1 null yeast to cisplatin killing relative to parent (wildtype Ixr-1) strain [4]: two-fold less sensitive
range of excision of the 1,2-d(G^G) crosslink [5, 6]: 1-8%
cellular SSRP binding to double stranded probe DNA bearing lesions produced by the compound [2]: bound

N.N.[Cl][Pt+2][Cl] [transplatin]
cellular SSRP binding to double stranded probe DNA bearing lesions produced by the compound [2]: did not bind

B1: h-mtTFA: human mitochondrial transcription factor A, an HMG domain protein (protein, UniProt Q00059 43-246, looked up)
Transcription factor A, …: SSVLASCPKKPVSSYLRFSKEQLPIFKAQNPDAKTTELIRRIAQRWRELPDSKKKIYQDAYRAEWQVYKEEISRFKEQLTPSQIMSLEKEIMDKHLKRKAMTKKKELTLLGKPKRPRSAYNVYVAERFQEAKGDSPQEKLKTVKENWKNLSDSEKELYIQHAKEDETRYHNEMKSWEEQMIEVGRKDLLRRTIKKQRKYGAEEC
percent inhibition of repair, 1,3-GTG adduct ([3]; 0.5 μM protein, HeLa CFE): 40%
percent inhibition of repair, 1,3-GTG adduct ([3]; 1 μM protein, HeLa CFE): 75%
percent inhibition of repair, 1,2-GG adduct ([5]; 0.5 μM protein, HeLa CFE): 95%
percent inhibition of repair, 1,2-GG adduct ([5]; 1 μM protein, HeLa CFE): 100%

B2: HMG1: Recombinant HMG1 protein purified from an E. coli overproducing strain; HMG domain protein (protein, UniProt P09429 1-215, looked up)
High mobility group protein B1: MGKGDPKKPRGKMSSYAFFVQTCREEHKKKHPDASVNFSEFSKKCSERWKTMSAKEKGKFEDMAKADKARYEREMKTYIPPKGETKKKFKDPNAPKRPPSAFFLFCSEYRPKIKGEHPGLSIGDVAKKLGEMWNNTAADDKQPYEKKAAKLKEKYEKDIAAYRAKGKPDAAKKGVVKAEKSKKKKEEEEDEEDEEDEEEEEDEEDEDEEEDDDDE
percent inhibition of repair, 1,3-GTG adduct ([3]; 0.5 μM protein, HeLa CFE): 0%
percent inhibition of repair, 1,3-GTG adduct ([3]; 1 μM protein, HeLa CFE): 0%
effect on excision of the 1,3-crosslink ([3]; HMG1 concentrations up to about 4 μM, inhibited at higher concentrations, FIG. 5): modestly stimulated
percent inhibition of repair, 1,2-GG adduct ([5]; 1 μM protein, HeLa CFE): 40%
effect on excision of the cisplatin 1,2-intrastrand crosslink ([5]; escalating concentrations of purified HMG1 (0-8 μM), FIG. 5): monotonically inhibited
